Source: patent publication US7632507B2, “Synovial cell protein” (St. Marianna University School of Medicine, priority 2000, dated 2009)
One block for each molecule: values may come before it.

Tests used:
[1] = target: T1, [35S]HA-Synoviolin-HAHA (Homo sapiens, UniProt Q86TM6); assay: Binding of Synoviolin to SL on nylon membrane with [35S]-labeled probe; details: protein transferred to nylon membrane, 2 hours at room temperature
T1 construct: Expression of Full-Length Synoviolin Recombinant Protein in E. coli; made in house; host or cells: cell-free in vitro translation (TNT-coupled Translation System, Promega) from pcDNA3-HA-synoviolin-HAHA
T1 sequence (Q86TM6 whole entry E545G): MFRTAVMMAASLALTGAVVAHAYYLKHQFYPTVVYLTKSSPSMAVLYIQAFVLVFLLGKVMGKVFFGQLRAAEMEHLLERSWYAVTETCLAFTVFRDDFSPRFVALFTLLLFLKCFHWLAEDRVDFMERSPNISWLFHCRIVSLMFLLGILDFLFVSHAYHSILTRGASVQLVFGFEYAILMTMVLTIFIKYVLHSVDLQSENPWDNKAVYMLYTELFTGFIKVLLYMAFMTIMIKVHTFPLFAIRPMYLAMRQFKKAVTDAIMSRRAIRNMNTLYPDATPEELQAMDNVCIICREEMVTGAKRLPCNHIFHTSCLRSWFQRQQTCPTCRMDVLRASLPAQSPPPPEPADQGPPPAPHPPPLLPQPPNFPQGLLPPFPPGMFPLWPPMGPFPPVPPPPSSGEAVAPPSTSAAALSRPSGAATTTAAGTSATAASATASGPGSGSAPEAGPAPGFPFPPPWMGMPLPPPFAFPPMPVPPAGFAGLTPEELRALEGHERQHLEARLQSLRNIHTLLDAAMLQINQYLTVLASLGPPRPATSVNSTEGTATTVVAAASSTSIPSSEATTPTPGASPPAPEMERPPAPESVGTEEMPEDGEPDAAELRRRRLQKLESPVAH
Method: The SL cDNA was inserted into a pGEX vector in the same manner as in Example 3 to prepare GST-SL fusion protein, and the GST-SL (500 ng) was applied to 10% SDS-PAGE along with GST (1 μg) as a control. After SDS-PAGE, it was transferred to a nylon membrane by electroblotting. This nylon membrane was denatured for 1 hour at room temperature with 50 mM Tris-HCl (pH 8.0) containing 6M guanidine hydrochloride and 5 mM 2-mercaptoethanol, and regenerated overnight at 4° C. in 50 mM Tris-HCl (pH 8.0) containing 5 mM 2-mercaptoethanol and 0.05% Tween 20. The regenerated nylon membrane was treated with blocking buffer [10 mM Tris-HCl (pH 8.0), 5% skim milk, 0.1% Triton X-100, 150 mM NaCl, 1 mM EDTA, 5 mM MgCl2, 1 mM DTT, 5% glycerol, protease inhibitor (complete, Boehringer Mannheim)] and washed in blocking buffer (same as above, except for 0.5% skim milk). […] This nylon membrane was washed in 10 mM Tris-HCl (pH 8.0), 0.5% skim milk, 0.1% Triton X-100, 150 mM NaCl, 1 mM EDTA, 5 mM MgCl2, 1 mM DTT, and protease inhibitor (complete, Boehringer Mannheim), and its radioactivity was detected with an image analyzer (BAS2000, Fujix). […]

[2] = tested on: anti-synovial cell anti-serum; assay: Antibody absorption test in synovial tissue staining; format: binding, rabbit; details: 2.0 mg/mL added to anti-serum
Method: The staining of RA patient-derived synovial tissue was performed by fixing synovial tissue upon glass slides by the ordinary method. A sample subjected to 30-minute blocking with 1% BSA was allowed to undergo immune reaction for 60 minutes at room temperature with anti-synovial cell anti-serum diluted 100 times with 1% BSA. After reaction, the sample was washed with PBS and then allowed to undergo immune reaction using HRP-labeled anti-rabbit IgG antibodies as the secondary antibody. Confirmation of the antigen in the immune reaction with anti-synovial cell anti-serum was performed by the coloring of 3,3′-diaminobenzidine tetrahydrochloride based on HRP activity. In the same manner as in the aforementioned Western blotting, GST-partial Synoviolin fusion protein was used to perform an anti-synovial cell anti-serum absorption test with respect to synovial tissue staining. Tissue staining was performed by adding 2.0 mg/mL of GST-partial Synoviolin fusion protein or GST (2.0 mg/mL) to anti-synovial cell anti-serum.

[3] = tested on: anti-synovial cell anti-serum; assay: Antibody absorption experiment in Western blotting of cell lysates; format: binding, rabbit; details: RA patient-derived synovial cells, 2.0 mg/mL
Method: First, the various cells used as specimens were solubilized in 1% NP-40 to prepare cell lysates. Each of the cell lysates was treated with 25 mM Tris-HCl (pH 6.8), 0.25% sodium dodecyl sulfate (SDS), 0.05% mercaptoethanol and 0.1% glycerol, and then separated with 8% SDS polyacrylamide electrophoresis (SDS-PAGE). After SDS-PAGE, protein derived from the various cells was transferred to a nitrocellulose (NC) membrane by electroblotting. On this NC membrane, anti-synovial cell anti-serum was diluted 1000 times with Tris buffered saline (TBS) containing 2.0 mg/mL GST-partial Synoviolin fusion protein and 5% skim milk, and subjected to immune reaction for 60 minutes at room temperature. In addition, as negative controls, an experiment wherein the same antibody solution is reacted with the NC membrane, and an experiment wherein the GST-partial Synoviolin fusion protein in the antibody solution is replaced with GST alone were performed at the same time. After the reaction, the NC membrane was washed with 0.1% Tween 20/TBS, subjected to an immune reaction for 60 minutes at room temperature with horseradish peroxidase (HRP) labeled anti-rabbit IgG antibodies as the secondary antibodies, and washed with 0.1% Tween 20/TBS, and the target antigen was detected by detecting HRP activity. […]

[4] = tested on: anti-synovial cell anti-serum; assay: Antibody absorption in fluorescent immunostaining of synovial cells; format: binding, rabbit
Method: Immunostaining was performed by fixing synovial cells upon glass slides by the ordinary method, and immunostaining was performed using the anti-synovial cell anti-serum of Example 1. A sample subjected to 30-minute blocking with 1% bovine serum albumin (BSA) was allowed to undergo immune reaction for 60 minutes at room temperature with anti-synovial cell anti-serum diluted 100 times with 1% BSA. In addition, along with observation with anti-serum, experiments were also performed using anti-synovial cell antibodies purified from this anti-serum. Purified anti-synovial cell antibodies were prepared by immunoaffinity purification using GST-partial Synoviolin fusion protein as a ligand. The ligand used was a fusion protein expressed after the GST-fusion protein expression vector pGEX-5X-3 containing the 1799 bp synoviolin gene up to No. 1233-3031 of SEQ ID NO: 1 was transformed into BL21. A Glutathione Sepharose column was produced by the method of the Pharmacia Corp, to prepare a GST-partial syno-GS column. As a control for the case where purified anti-synovial cell antibodies were used, an anti-GST antibody obtained by the immunoaffinity purification of anti-serum in the same manner where GST was used as the ligand was used. […]

[5] = tested on: RA patient-derived synovial cells; assay: MTT assay of synovial cell hyperplasia; format: cell-based, human; details: 1 μM, three days of culture, 10%-FCS/DMEM, 37° C., 5% CO2
Method: The RA patient-derived synovial cells prepared in Example 1 were used to prepare 96 well plates so that there were 5×10^3 cells/well, and GST or GST-partial Synoviolin was added to the cell supernatant so that the final concentration became 0.01 to 1 μM. After three days of culture, 3-(4,5-dimethyl-2-thiazolyl)-2,5-diphenyl-2H-tetrazolium bromide (MTT)/PBS was added to the cell supernatant, and it was cultured for 3 hours under conditions of 37° C. and 5% CO2. After culturing, the cell supernatant was removed, crystals of MTT formazan were dissolved with dimethyl sulfoxide, and absorbance measurement was performed (Journal of Immunological Methods, 65, 55, 1983).

binding to [35S]HA-Synoviolin-HAHA [1]: not observed
Molecule: glutathione S-transferase [GST, reference compound]

binding to [35S]HA-Synoviolin-HAHA [1]: observed
B1: GST-SL: GST fusion protein of Synoviolin ligand (SL), thought to be the same protein as S1-5 (protein)
chain: QDTEETITYTQCTDGYEWDPVRQQCKDIDECDIVPDACKGGMKCVNHYGGYLCLPKTAQIIVNNEQPQQETQPAEGTSGATTGVVAASSMATSGVLPGGGFVASAAAVAGPEMQTGRNNFVIRRNPADPQRIPSNPSHRIQCAAGYEQSEHNVCQDIDECTAGTHNCRADQVCINLRGSFACQCPPGYQKRGEQCVDIDECTIPPYCHQRCVNTPGSFYCQCSPGFQLAANNYTCVDINECDASNQCAQQCYNILGSFICQCNQGYELSSDRLNCEDIDECRTSSYLCQYQCVNEPGKFSCMCPQGYQVVRSRTCQDINECETTNECREDEMCWNYHGGFRCYPRNPCQDPYILTPENRCVCPVSNAMCRELPQSIVYKYMSIRSDRSVPSDIFQIQATTIYANTINTFRIKSGNENGEFYLRQTSPVSAMLVLVKSLSGPREHIVDLEMLTVSSIGTFRTSSVLRLTIIVGPFSF
modifications: left off: a dimerising Fc or GST

B2: GST-partial Synoviolin: GST fusion protein of a portion of Synoviolin (cDNA 1799 bp; SEQ ID NO: 1, No. 1233-3031) expressed in E. coli (protein)
chain: PPVPPPPSSGEAVAPPSTSAAALSRPSGAATTTAAGTSATAASATASGPGSGSAPEAGPAPGFPFPPPWMGMPLPPPFAFPPMPVPPAGFAGLTPEELRALEGHERQHLEARLQSLRNIHTLLDAAMLQINQYLTVLASLGPPRPATSVNSTEGTATTVVAAASSTSIPSSEATTPTPGASPPAPEMERPPAPESVGTEEMPEDGEPDAAELRRRRLQKLESPVAH
modifications: left off: a dimerising Fc or GST
staining of synovial tissue with anti-synovial cell anti-serum [2]: weakened
immune reaction of anti-synovial cell anti-serum to the 220 kDa protein [3]: blocked
immune reaction of anti-synovial cell anti-serum to the approximately 140 kDa and approximately 185 kDa proteins [3]: partially blocked
immune reaction of anti-synovial cell anti-serum with RA patient-derived synovial cells [4]: blocked
RA patient-derived synovial cell hyperplasia [5]: significantly suppressed
